{"source": "patent US20220098303A1", "about": "(GlaxoSmithKline, published 2022)", "binders": {"B1": {"name": "Pembrolizumab (antibody, V domains shown)", "VH": "QVQLVQSGVEVKKPGASVKVSCKASGYTFTNYYMYWVRQAPGQGLEWMGGINPSNGGTNFNEKFKNRVTLTTDSSTTTAYMELKSLQFDDTAVYYCARRDYRFDMGFDYWGQGTTVTVSS", "VL": "EIVLTQSPATLSLSPGERATLSCRASKGVSTSGYSYLHWYQQKPGQAPRLLIYLASYLESGVPARFSGSGSGTDFTLTISSLEPEDFAVYYCQHSRDLPLTFGGGTKVEIKR", "notes": "also called MK3475"}}, "target": "cynomolgus PD-1 (cynomolgus)", "experiment": "kinetic analysis (bio-light interferometry)"}
{"binder": "B1", "values": [{"measurement": "Kd", "value": 118, "unit": "pM"}]}
